Reference: patent US20250352662A1 (MERSANA THERAPEUTICS, published 2025)
Several values for one entry are separate records, joined by “and”; a condition that tells them apart may be missing. Equal values may be shown once.

T1: human NaPi2b on OVCAR3 human ovarian cancer cells (human, UniProt O95436 1-690)
T1 construct: also called SLC34A2; sodium-dependent phosphate transport protein 2B
T1 sequence: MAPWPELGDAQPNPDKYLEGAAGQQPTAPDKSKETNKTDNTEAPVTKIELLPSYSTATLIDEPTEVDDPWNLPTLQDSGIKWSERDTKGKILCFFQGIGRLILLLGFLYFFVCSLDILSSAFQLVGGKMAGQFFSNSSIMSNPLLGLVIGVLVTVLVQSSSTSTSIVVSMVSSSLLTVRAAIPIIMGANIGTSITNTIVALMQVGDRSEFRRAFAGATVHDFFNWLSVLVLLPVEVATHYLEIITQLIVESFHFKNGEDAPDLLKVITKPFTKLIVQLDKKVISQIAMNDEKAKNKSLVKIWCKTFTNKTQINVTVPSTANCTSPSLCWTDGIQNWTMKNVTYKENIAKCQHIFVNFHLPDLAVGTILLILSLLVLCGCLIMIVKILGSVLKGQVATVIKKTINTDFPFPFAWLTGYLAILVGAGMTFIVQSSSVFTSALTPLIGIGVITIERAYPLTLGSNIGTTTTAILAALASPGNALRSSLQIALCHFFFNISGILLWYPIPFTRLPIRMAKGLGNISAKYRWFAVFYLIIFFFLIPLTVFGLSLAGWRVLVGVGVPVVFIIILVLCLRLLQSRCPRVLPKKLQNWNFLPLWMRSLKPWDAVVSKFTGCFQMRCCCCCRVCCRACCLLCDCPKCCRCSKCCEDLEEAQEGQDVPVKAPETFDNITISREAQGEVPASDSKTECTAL

B1: XMT-1535 Conjugate 8b-3, DAR 6.4 (antibody, human IgG1, kappa)
heavy: not shown
light: DIQMTQSPSSLSASVGDRVTITCSASQDIGNFLNWYQQKPGKTVKVLIYYTSSLYSGVPSRFSGSGSGTDYTLTISSLQPEDFATYYCQQYSKLPLTFGQGTKLELKRRTVAAPSVFIFPPSDEQLKSGTASVVCLLNNFYPREAKVQWKVDNALQSGNSQESVTEQDSKDSTYSLSSTLTLSKADYEKHKVYACEVTHQGLSSPVTKSFNRGEC
modifications: STING agonist linker-drug on cysteine thiols of the reduced antibody, positions not given; STING agonist linker-drug (Compound 7) joined through maleimide to cysteine thiols of the TCEP-reduced antibody, positions not given; DAR 6.4 per antibody
B2: XMT-1535 (antibody, human IgG1, kappa)
heavy: not shown
light: B1 light
notes: Unconjugated antibody, IgG1; also called anti-NaPi2b antibody; NaPi2b mAb
B3: XMT-1535 mIgG2a (antibody, V domains shown)
VH: QVQLVQSGAEVVKPGASVKMSCKASGYTFTGYNIHWVKQAPGQGLEWIGAIYPGNGDTSYKQKFRGRATLTADTSTSTVYMELSSLRSEDSAVYYCARGETARATFAYWGQGTLVTVSSG
VL: DIQMTQSPSSLSASVGDRVTITCSASQDIGNFLNWYQQKPGKTVKVLIYYTSSLYSGVPSRFSGSGSGTDYTLTISSLQPEDFATYYCQQYSKLPLTFGQGTKLELKR
notes: Unconjugated; variable domains are those of XMT-1535 by name only; also called XMT-1535 hIgG1-mIgG2a
B4: XMT-1535 mIgG2a Conjugate 32d, DAR 8.8 (antibody, V domains shown)
VH: B3 VH
VL: B3 VL
notes: elsewhere called chimeric hIgG1-mIgG2a; the variable domains are those of XMT-1535 by name only

biological target: T1, human NaPi2b on OVCAR3 human ovarian …; assay: flow cytometry on OVCAR3 cells, 1 h on ice, goat anti-human IgG-Alexa-647 detection, MFI; mean EC50
Description: OVCAR3 cells were grown to ˜80-95% confluency in RPMI 1640 medium supplemented with FBS (20%) and penicillin/streptomycin (1%). Cells were harvested and added to wells of a 96-well U bottom plate (50,000/well). The cells were pelleted (300×g, 5 minutes) and resuspended in solutions of test articles as indicated in Table 18 at concentrations ranging between 0.01 nM and 300 nM and incubated on ice for 1 hour.

Point of comparison: B4, EC50 2.99 nM. Against it:
- B1 — 2.7-fold higher, 8.13 nM
- B3 — within 1.5-fold, 4.13 nM

With B2 the EC50 was 4.29 nM and 3.74 nM.
